Results reported in patent publication US5747321.

Target: fused protein β-gal97S4DhCNP-22R5-3 (human) (UniProt P23582)

Question: Which cleavage efficiency (proportion of fused protein cleaved) does the source give for “natural V8 protease (Staphylococcus aureus V8 protease) (from UniProt P0C1U8) (enzyme)” here?
Answer: 60%
